Measurements as given in paper PMC9636275 (Nature Communications, 2022).
Entries after “also recorded” stand apart in the source; their conditions may differ. Like-named read-outs stand apart in the source and are kept apart here.

Key:
CobB [1] = biological target: T1, CobB (Escherichia coli, UniProt P75960); conditions: for kcat: 37 °C, MALDI-TOF MS, mean ± SEM; for kcat / kcat/Km: n = 3
T1 sequence (P75960 1-279): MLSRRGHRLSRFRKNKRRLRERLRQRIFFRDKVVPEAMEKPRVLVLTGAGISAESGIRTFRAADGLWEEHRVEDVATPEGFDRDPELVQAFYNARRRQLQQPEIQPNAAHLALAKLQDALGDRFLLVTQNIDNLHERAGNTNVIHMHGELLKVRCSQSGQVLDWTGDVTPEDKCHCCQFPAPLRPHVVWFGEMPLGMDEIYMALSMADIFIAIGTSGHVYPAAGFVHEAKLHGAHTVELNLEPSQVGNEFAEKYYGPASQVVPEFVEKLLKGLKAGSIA
Method: (§1) This method was described previously. […] Meanwhile, YiaC was incubated with unmodified peptide ([…], from PncB) in the YiaC reaction buffer. The concentrations of the peptides were 5, 10, 16, 32, 60, and 285 uM, and reaction time were 1, 5, 15, and 30 min. […] 0.1 μl samples mixed with 2,5-dihydroxybenzoic acid (DHB) were analyzed by MS. An acceleration voltage of 20 kV was used. MS data were analyzed using FlexAnalysis software for spectral processing and peak detection. The enzyme kinetics were analyzed by Prism GraphPad 8.0 software.

whole-cell lysates = assay: Immunoblotting of lysine acylation in whole-cell lysates of overexpressing or deficient strains; type: cell-based, E. coli; conditions: immunoblot; for Kla level: overexpression in E. coli BL21 (λDE3) vs empty pET28a, LB 37 °C
Method: All the anti-acyllysine antibodies were purchased from PTM Biolabs Inc. All the synthetic peptides were generated by SciLight Biotechnology, LLC. Antibodies (all diluted 1:1000) and other reagents are listed in Supplementary Data 7.
This method was performed as described previously. In detail, plasmids were constructed to express proteins in E. coli. We used pEASY®-Basic Seamless Cloning and Assembly Kit (TRANS) to construct the plasmids of pET28a-cisY, pET28a-pncB, pET28a-gpmA, pET28a-mdh, pET28a-pykF, and pBR322-pykF-His tag. For mutation, we used the Fast Mutagenesis System (TRANS) to construct the vectors containing point mutated genes. All primers used for PCR are listed in Supplementary Data 7. The constructed vectors of pET28a were transformed into E. coli BL21 (λDE3) for overexpressing strains. The constructed vectors of pBR322 were transformed into E. coli MG1655 and cultured in LB medium containing ampicillin (Amp, 50 μg ml^–1), at 37 °C in shaken flasks at 220 rpm. overnight.
Next, cells were induced with 0.05 mM IPTG at 16 °C overnight followed by harvesting of whole-cell lysates for immunoblotting or protein purification. The proteins were harvested from cultured cells by lysis buffer (20 mM Tris-HCl, pH 8.0, 10 mM MgCl2, 1 mg ml^–1 lysozyme, 50 U ml^–1 nuclease). Then the proteins were mixed with HisPur Ni-NTA Resin and washed by wash buffer (20 mM Na3PO4, 300 mM NaCl, 25 mM imidazole, pH 7.4), the overexpressed proteins were eluted with elution buffer (20 mM Na3PO4, 300 mM NaCl, 250 mM imidazole, PH 7.4). The elution was collected and concentrated using an Amicon Ultra-0.5 Centrifugal Filter Device in storage buffer (100 mM HEPES, 10 mM MgCl2, 7.7 mM KCl, pH 7.0).

PykF, GpmA, Mdh = conditions: 15 μM CobB, 20 μM substrate, 25 °C, 10 h
Method: The purified recombinant YiaC (15 μM) and candidate substrate proteins (GltA, PncB, 20 μM) were incubated in YiaC reaction buffer at 25 °C for 10 h. […] The reaction products were analyzed by Western blotting with anti-lactylation.

PykF = conditions: in vitro; result in words
CobB [2] = biological target: T1, CobB; conditions: 50 μM peptide, 1 μM CobB, pH 8.5, 37 °C, 2 h; with 1 mM NAD^+ unless stated
YiaC [3] = assay: Kinetic parameters of YiaC, MALDI-TOF MS; type: biochemical, E. coli; conditions: for kcat: peptide from PncB, MALDI-TOF MS
Method: as §1

GltA, PncB = assay: Lactylation reaction of recombinant proteins by YiaC, immunoblotting; type: biochemical, E. coli; conditions: 15 μM YiaC, 20 μM substrate, lactyl-CoA 1 mM, 25 °C, 10 h
YiaC [4] = assay: YiaC lactylation/acetylation of synthetic peptide, LC-MS; type: biochemical, E. coli; conditions: 50 μM TICHDKAFVR, 5 μM YiaC, 2 h
[5] = Deacetylation, Michaelis-Menten best fit, Supplementary Data 2
[6] = deacetylation, AETAEK(ac)YGDEQVK
[7] = delactylation, AETAEK(la)YGDEQVK
[8] = overexpression in E. coli BL21 (λDE3) vs pET28a

B1: CobB: NAD-dependent deacylase; lysine delactylase (protein)
chain: MLSRRGHRLSRFRKNKRRLRERLRQRIFFRDKVVPEAMEKPRVLVLTGAGISAESGIRTFRAADGLWEEHRVEDVATPEGFDRDPELVQAFYNARRRQLQQPEIQPNAAHLALAKLQDALGDRFLLVTQNIDNLHERAGNTNVIHMHGELLKVRCSQSGQVLDWTGDVTPEDKCHCCQFPAPLRPHVVWFGEMPLGMDEIYMALSMADIFIAIGTSGHVYPAAGFVHEAKLHGAHTVELNLEPSQVGNEFAEKYYGPASQVVPEFVEKLLKGLKAGSIA
modifications: left off: His tag (from the vector pET28a and the Ni-NTA purification), end not stated, state not stated
notes: NAD-dependent deacylase; lysine delactylase
In the case of B1, the Km (CobB [1]; [5]) is reported as 25.4 µM, the Vmax (CobB [1]; [5]) is reported as 0.01822 and the Vmax (CobB [1]; Delactylation, Michaelis-Menten best fit, Supplementary Data 2) is reported as 0.02447. For the same molecule, the kcat (CobB [1]; [6]) was 0.97 ± 0.02 s⁻¹, the kcat/Km (CobB [1]; [6]) was 52000 M⁻¹ s⁻¹ and the kcat (CobB [1]; [7]) was 0.99 ± 0.04 s⁻¹. The kcat/Km (CobB [1]; [7]) was 39000 M⁻¹ s⁻¹, the Kla level (whole-cell lysates) was “significant decrease in Kla levels” and the “delactylation of candidate proteins” value (PykF, GpmA, Mdh) was “can clearly delactylate pyruvate kinase I (PykF), 2,3-bisphosphoglycerate-dependent phosphoglycerate mutase (GpmA) and malate dehydrogenase (Mdh) in vitro”. For the same molecule, the “PykF activity after CobB erasing K382la” value (PykF) was “enhanced PykF activity in vitro” and the “delactylation of peptide by CobB” value (CobB [2]) was “efficiently catalyzed the hydrolysis of the lactyl peptide in the presence of NAD^+; also recorded: the delactylated peptide was not detected in the reaction without NAD^+”.

B2: YiaC: GNAT family protein; lysine lactylase (protein, UniProt P37664 1-146, looked up)
Peptidyl-lysine …: MIREAQRSELPAILELWLESTTWGHPFIKANYWRDCIPLVRDAYLANAQNWVWEEDGKLLGFVSIMEGRFLAAMFVAPKAVRRGIGKALMQYVQQRHPHLMLEVYQKNQPAINFYQAQGFHIVDCAWQDETQLPTWIMSWPVVQTL
For B2, the Vmax (YiaC [3]; Acetylation, Michaelis-Menten best fit, Supplementary Data 2) was 0.005773, the Km (YiaC [3]; Acetylation, Michaelis-Menten best fit, Supplementary Data 2, read-out: Km) was 28.7 µM and the Vmax (YiaC [3]; Lactylation, Michaelis-Menten best fit, Supplementary Data 2) was 0.01667. For the same molecule, the Km (YiaC [3]; Lactylation, Michaelis-Menten best fit, Supplementary Data 2, read-out: Km) was 26.6 µM, the kcat/Km (YiaC [3]; acetylation, n = 3) was 8000 M⁻¹ s⁻¹ and the Km (YiaC [3]; acetylation, peptide from PncB 5-285 μM, mean ± SEM, n = 3, read-out: Km for peptide) was 28.7 ± 1.2 µM. It also gave a kcat (YiaC [3]; acetylation, mean ± SEM, n = 3) of 0.23 ± 0.04 s⁻¹, a kcat/Km (YiaC [3]; lactylation, n = 3) of 36000 M⁻¹ s⁻¹ and a Km (YiaC [3]; lactylation, peptide from PncB 5-285 μM, mean ± SEM, n = 3, read-out: Km for peptide) of 26.6 ± 1.1 µM. For the same molecule, the kcat (YiaC [3]; lactylation, mean ± SEM, n = 3) was 0.97 ± 0.03 s⁻¹, the “lactylation of candidate proteins” value (GltA, PncB) was “can effectively lactylate citrate synthase (GltA) and nicotinate phosphoribosyltransferase (PncB)” and the Kla level (whole-cell lysates) was “extensive and obvious increase in Kla levels”. For the same molecule, the Kac level (whole-cell lysates; [8]) was “could upregulate Kac”, the succinylation level (whole-cell lysates; [8]) was “did not cause a change in succinylation” and the “lactylation of peptide by YiaC” value (YiaC [4]; 0.1 mM lactyl-CoA, pH 7, 37 °C) was “can catalyze lactylation in vitro”. For the same molecule, the “lactylation compared with acetylation by YiaC” value (YiaC [4]; 37 °C) was “likely more efficient for lactylation”.
